In patent publication US20230203204A1 (published 2023) one finds EC50 data, which are given here for one molecule.

The target in this assay is T1, recombinant human RANKL-murine Fc fusion protein (Sino Biological Inc.) (human, UniProt O14788 136-317, limits assumed).
T1 construct: Bought; not shown: murine Fc
T1 sequence (looked up): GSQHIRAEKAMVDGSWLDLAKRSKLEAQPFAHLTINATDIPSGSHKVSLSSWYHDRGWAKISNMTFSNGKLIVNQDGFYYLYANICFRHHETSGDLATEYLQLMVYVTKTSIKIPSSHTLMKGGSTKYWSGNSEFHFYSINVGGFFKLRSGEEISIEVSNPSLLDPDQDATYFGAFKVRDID
Put plainly: ELISA, human RANKL-murine Fc coated at 1 ug/mL, fusion protein titrated, anti-human IgG Fc-AP detection. For orientation: In an ELISA, binding on a coated surface is turned into a signal by an enzyme label.

By EC50 is commonly meant the concentration giving half of the maximal effect.

B1: OPG-Fc (Sino Biological Inc.) (Fc fusion, UniProt O00300 22-401, looked up)
chain: ETFPPKYLHYDEETSHQLLCDKCPPGTYLKQHCTAKWKTVCAPCPDHYYTDSWHTSDECLYCSPVCKELQYVKQECNRTHNRVCECKEGRYLEIEFCLKHRSCPPGFGVVQAGTPERNTVCKRCPDGFFSNETSSKAPCRKHTNCSVFGLLLTQKGNATHDNICSGNSESTQKCGIDVTLCEEAFFRFAVPTKFTPNWLSVLVDNLPGTKVNAESVERIKRQHSSQEQTFQLLKLWKHQNKDQDIVKKIIQDIDLCENSVQRHIGHANLTFEQLRSLMESLPGKKVGAEDIEKTIKACKPSDQILKLLSLWRIKNGDQDTLKGLMHALKHSKTYHFPKTVTQSLKKTIRFLHSFTMYKLYQKLFLEMIGNQVQSVKISCL
notes: not shown: Fc part of the bought product
Consider B1, for which the EC50 was 0.04 µg/mL.
